Results reported in paper PMC1751550.

Molecular target: full length Brn-3b GST fusion protein (UniProt Q63934)
Assay: pull-down

Chain of UniProt Q63934 (Q63934 whole entry, the tested form may be a part): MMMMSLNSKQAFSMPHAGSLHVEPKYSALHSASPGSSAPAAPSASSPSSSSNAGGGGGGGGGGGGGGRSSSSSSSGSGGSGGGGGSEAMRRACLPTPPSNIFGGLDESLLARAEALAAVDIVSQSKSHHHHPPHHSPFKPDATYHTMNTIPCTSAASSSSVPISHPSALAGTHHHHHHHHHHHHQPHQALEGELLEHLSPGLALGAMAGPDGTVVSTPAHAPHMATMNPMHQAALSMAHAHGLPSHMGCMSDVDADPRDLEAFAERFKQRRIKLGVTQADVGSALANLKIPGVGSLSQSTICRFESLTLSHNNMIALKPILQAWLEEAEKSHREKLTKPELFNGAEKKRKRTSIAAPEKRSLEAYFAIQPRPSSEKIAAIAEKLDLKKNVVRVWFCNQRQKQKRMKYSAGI

## in vitro translated estrogen receptor (from UniProt P03372 1-595)
  percent of input retained: 15.2 % of input
